The source of these data is patent publication US20260193313A1 (ALPINE IMMUNE SCIENCES, published 2026).

Experiment [1] concerns the target T1, CTLA-4 (human, UniProt P16410 36-223).
T1 construct: CHO cells transduced to stably express CTLA-4; also called huCTLA; CHO/CTLA-4
T1 sequence: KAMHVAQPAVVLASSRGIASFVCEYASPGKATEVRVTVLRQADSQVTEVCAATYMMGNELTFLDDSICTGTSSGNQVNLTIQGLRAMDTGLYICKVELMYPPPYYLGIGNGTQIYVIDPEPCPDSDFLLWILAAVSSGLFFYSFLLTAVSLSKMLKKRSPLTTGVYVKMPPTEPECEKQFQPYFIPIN
Kind of experiment: flow cytometry, 11 nM Fc fusion on CHO/CTLA4 transfectants.

For experiment [2], the target named is T2, CD28 (human, UniProt P10747 19-220). Kind of experiment: flow cytometry, 11 nM Fc fusion on Jurkat cells.
T2 sequence (P10747 19-220): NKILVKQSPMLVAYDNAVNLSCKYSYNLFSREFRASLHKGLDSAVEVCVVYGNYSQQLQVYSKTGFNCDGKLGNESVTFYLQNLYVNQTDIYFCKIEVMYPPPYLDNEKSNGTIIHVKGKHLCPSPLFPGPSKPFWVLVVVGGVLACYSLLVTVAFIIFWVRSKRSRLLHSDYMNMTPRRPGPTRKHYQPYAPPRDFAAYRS
The target in another experiment is T3, PD-L1 (human, UniProt Q9NZQ7 19-290).
T3 construct: also called huPD-L1
T3 sequence (Q9NZQ7 19-290): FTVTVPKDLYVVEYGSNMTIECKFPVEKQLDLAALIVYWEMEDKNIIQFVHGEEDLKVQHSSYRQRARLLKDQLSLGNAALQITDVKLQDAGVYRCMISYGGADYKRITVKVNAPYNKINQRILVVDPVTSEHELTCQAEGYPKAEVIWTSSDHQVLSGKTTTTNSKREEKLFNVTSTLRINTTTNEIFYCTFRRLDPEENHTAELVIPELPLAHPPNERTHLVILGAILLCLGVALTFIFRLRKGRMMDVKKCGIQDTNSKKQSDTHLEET
Kind of experiment: flow cytometry, K562 cells transduced to express PDL1, anti-Fc antibody-PE. The method, then: (§1) To assess binding activity, the exemplary formatted stack constructs were incubated with Jurkat cells expressing CD28, the cognate binding partner of CD86, and with K562 cells transduced to express PDL1, the cognate binding partner of PD-1. The cells (50,000 cells/well) were incubated on ice for 30 min with the formatted stack constructs set forth in Table E7 at various concentrations (starting concentration 100 nM, 8 serial 1:4 dilutions titrated down). Cells were then washed with FACS buffer and resuspended with 50 μL anti-Fc antibody-PE for 30 min. Binding was assessed by flow cytometry and Mean Fluorescence Intensity (MFI) was determined.

The target of experiment [3] is T2, CD28. Kind of experiment: flow cytometry, Jurkat cells expressing CD28, anti-Fc antibody-PE. The method, then: as §1
Experiment [4] addresses T2, CD28. Kind of experiment: flow cytometry, 25 nM Fc fusion on Jurkat cells. As to the method: (§2) Binding of the CD86 domain variants described above were assayed for binding to CD28 using Jurkat cells or to CTLA-4 using Chinese Hamster Ovary (CHO) cells that were transduced to stably express CTLA-4 (CHO/CTLA-4). For staining by flow cytometry, approximately 100,000 ligand-expressing cells were incubated with various concentrations of each candidate CD86 variant Fc fusion protein. […] To assess binding, cells were stained with an anti-human Fc secondary antibody (Jackson ImmunoResearch, USA), and samples were analyzed on an LSRII (BD Biosciences, Inc., USA) flow cytometer.
(§3) In the Table, the exemplary amino acid substitutions and insertions in the IgV domain are designated by amino acid position number corresponding to amino acid positions in the respective reference unmodified mature CD86 extracellular domain (ECD) sequence set forth in SEQ ID NO:29. The amino acid position is indicated in the middle, with the corresponding unmodified (e.g. wild-type) amino acid listed before the number and the identified variant amino acid substitution listed after the number. Column 2 sets forth the SEQ ID NO identifier for each variant IgV domain contained in the variant IgV-Fc fusion molecule.
Background: In flow cytometry, cells or beads pass a laser one at a time.

Experiment [5] has as its target T2, CD28. Kind of experiment: cell-based or functional assay.
For experiment [6], the target named is T1, CTLA-4. Kind of experiment: flow cytometry, 25 nM Fc fusion on CHO/CTLA4 transfectants. The method, then: as §2, §3

Positions count from the first letter of the chain named. Names and notes keep the numbering of the source.

With “variant CD86 ECD-Fc Q25L/H90L/P185S/P224L (ECD SEQ ID NO: 116) (Fc fusion)”, in the experiment with CTLA-4 [1], the Fold Increase over WT CD86 ECD is 0.5 fold and the MFI is 9360. In the experiment with CD28 [2], this molecule displayed an MFI of 11.9.

B1: formatted PD-1-CD86 stack, FIG. 14A format, SEQ ID NO: 327 homodimer (Fc fusion)
chain: DSPDRPWNPPTFSPALLVVTEGDNATFTCSFSNTSESFVLNWYRMSPSNQTDKLAAFPEDRNQPGQDRRFRVTQLPNGRDYHMSVDRARRNDSGTYLCGAITLAPKVQIDESLRVELRVTERGSGGGGSEPKSSDKTHTCPPCPAPEAEGAPSVFLFPPKPKDTLMISRTPEVTCVVVDVSHEDPEVKFNWYVDGVEVHNAKTKPREEQYNSTYRVVSVLTVLHQDWLNGKEYKCKVSNKALPAPIEKTISKAKGQPREPQVYTLPPSRDELTKNQVSLTCLVKGFYPSDIAVEWESNGQPENNYKTTPPVLDSDGSFFLYSKLTVDKSRWQQGNVFSCSVMHEALHNHYTQKSLSLSPGGGGGSGGGGSGGGGSGGGGSAPLKIQAYFNETADLPCQFANSQNLSLSELVVFWQDQENLVLNEVYLGKEKFDSVHSKYMGRTSFDSDSWTLRLHNLQIKDKGLYRCIILHKKPTGMIRIHQMSSELSVLA
notes: also called variant PD1 ECD - Fc - variant CD86 IgV
On to B1, for which the binding result in the experiment with PD-L1 and with CD28 [3] was “binds” throughout.

B2: formatted PD-1-CD86 stack, FIG. 14D format (heterodimer SEQ ID NOs 328 + 331) (Fc fusion)
chain 1: DSPDRPWNPPTFSPALLVVTEGDNATFTCSFSNTSESFVLNWYRMSPSNQTDKLAAFPEDRNQPGQDRRFRVTQLPNGRDYHMSVDRARRNDSGTYLCGAITLAPKVQIDESLRVELRVTERGSGGGGSEPKSSDKTHTCPPCPAPEAEGAPSVFLFPPKPKDTLMISRTPEVTCVVVDVSHEDPEVKFNWYVDGVEVHNAKTKPREEQYNSTYRVVSVLTVLHQDWLNGKEYKCKVSNKALPAPIEKTISKAKGQPREPQVYTLPPCREEMTKNQVSLWCLVKGFYPSDIAVEWESNGQPENNYKTTPPVLDSDGSFFLYSKLTVDKSRWQQGNVFSCSVMHEALHNHYTQKSLSLSPG
chain 2: B1 chain with Y263C, D270E, L272M, T280S, L282A, Y321V
notes: Knobs-into-hole heterodimer
On to B2, for which the binding result with PD-L1 and in the experiment with CD28 [3] was “binds” each time.

B3: variant CD86 IgV-Fc M60K/H90L (IgV SEQ ID NO: 128) (Fc fusion)
chain: APLKIQAYFNETADLPCQFANSQNQSLSELVVFWQDQENLVLNEVYLGKEKFDSVHSKYKGRTSFDSDSWTLRLHNLQIKDKGLYQCIILHKKPTGMIRIHQMNSELSVLAGSGGGGSEPKSSDKTHTCPPCPAPEAEGAPSVFLFPPKPKDTLMISRTPEVTCVVVDVSHEDPEVKFNWYVDGVEVHNAKTKPREEQYNSTYRVVSVLTVLHQDWLNGKEYKCKVSNKALPAPIEKTISKAKGQPREPQVYTLPPSRDELTKNQVSLTCLVKGFYPSDIAVEWESNGQPENNYKTTPPVLDSDGSFFLYSKLTVDKSRWQQGNVFSCSVMHEALHNHYTQKSLSLSPG
Molecule B3 came in with an MFI with CD28 [4] of 20.

B4: variant CD86 IgV-Fc Q25L/Q86R/H90L (IgV SEQ ID NO: 126) (Fc fusion)
chain: B3 chain with Q25L, K60M, Q86R
In the case of B4, in the experiment with CD28 [5], the “Fold Increase over WT CD86 ECD, Jurkat/IL2 Luciferase Assay (10 nM OKT3 + 50 nM CD86 IgV-Fc)” value amounted to 6.1 fold and the “Relative luminescence units (RLU), Jurkat/IL2 Luciferase Assay (10 nM OKT3 + 50 nM CD86 IgV-Fc)” value came out at 800 RLU. For the same molecule, in the experiment with CTLA-4 [6], the “Fold Increase over WT CD86 ECD” value was determined as 1.3 fold and the MFI turned out to be 4940. Also, in the experiment with CD28 [4], the “Fold Increase over WT CD86 ECD” value stood at 128 fold and the MFI is 1570.

B5: formatted PD-1-CD86 stack, FIG. 14C format (heterodimer SEQ ID NOs 328 + 330) (Fc fusion)
chain 1: B2 chain 1
chain 2: EPKSSDKTHTCPPCPAPEAEGAPSVFLFPPKPKDTLMISRTPEVTCVVVDVSHEDPEVKFNWYVDGVEVHNAKTKPREEQYNSTYRVVSVLTVLHQDWLNGKEYKCKVSNKALPAPIEKTISKAKGQPREPQVCTLPPSREEMTKNQVSLSCAVKGFYPSDIAVEWESNGQPENNYKTTPPVLDSDGSFFLVSKLTVDKSRWQQGNVFSCSVMHEALHNHYTQKSLSLSPGGGGGSGGGGSGGGGSGGGGSAPLKIQAYFNETADLPCQFANSQNLSLSELVVFWQDQENLVLNEVYLGKEKFDSVHSKYMGRTSFDSDSWTLRLHNLQIKDKGLYRCIILHKKPTGMIRIHQMSSELSVLA
notes: Knobs-into-hole heterodimer
B5: the binding result with PD-L1 and with CD28 [3] was “binds” throughout.

B6: formatted PD-1-CD86 stack, FIG. 14A format, SEQ ID NO: 326 homodimer (Fc fusion)
chain: DSPDRPWNPPTFSPALLVVTEGDNATFTCSFSNTSESFVLNWYRMSPSNQTDKLAAFPEDRNQPGQDRRFRVTQLPNGRDYHMSVDRARRNDSGTYLCGAITLAPKVQIDESLRVELRVTERGSGGGGSEPKSSDKTHTCPPCPAPEAEGAPSVFLFPPKPKDTLMISRTPEVTCVVVDVSHEDPEVKFNWYVDGVEVHNAKTKPREEQYNSTYRVVSVLTVLHQDWLNGKEYKCKVSNKALPAPIEKTISKAKGQPREPQVYTLPPSRDELTKNQVSLTCLVKGFYPSDIAVEWESNGQPENNYKTTPPVLDSDGSFFLYSKLTVDKSRWQQGNVFSCSVMHEALHNHYTQKSLSLSPGGGGGSGGGGSGGGGSGGGGSAPLKIQAYFNETADLPCQFANSQNLSLSELVVFWQDQENLVLNEVYLGKEKFDSVHSKYMGRTSFDSDSWTLRLHNLQIKDKGLYRCIILHKKPTGMIRIHQMSSELSVLANFSQPEIVPISNITENVYINLTCSSIHGYPEPKKMSVLLRTKNSTIEYDGVMQKSQDNVTELYDVSISLSVSFPDVTSNMTIFCILETDKTRLLSSPFSIELEDPQPPPDHIP
notes: also called variant PD1 ECD - Fc - variant CD86 ECD
For B6, the binding result with PD-L1 and in the experiment with CD28 [3] was “binds” in each case.
